# Data from patent publication US20230265151A1, “GIP/GLP1 CO-AGONIST COMPOUNDS” (priority 2020, published 2023).
# Changes are numbered by the printed parent chain. *1 amine or outer side, *2 acyl side, *3 side chain or, on linkers, in order; H or OH if unused. Where no end group is shown, it is not given here. Side-chain parts run from the residue outwards. [ ]: non-standard residue; d: D form. The star is where a group is joined. Decanoyl(10-(4-HOOC-PhO)) = O=C(O)c1ccc(OCCCCCCCCCC(=O)*)cc1; αMePhe(2-F) = C[C@](N)(Cc1ccccc1F)C(=O)O; γGlu = O=C(O)[C@H](CCC(=O)[*:2])N[*:1]; αMeY = C[C@](N)(Cc1ccc(O)cc1)C(=O)O; αMeL = CC(C)C[C@](C)(N)C(=O)O; Nle = CCCC[C@H](N)C(=O)O; Orn = NCCC[C@H](N)C(=O)O; AEEA = NCCOCCOCC(=O)O; Aib = CC(C)(N)C(=O)O
# T1: human GIP receptor (human, UniProt P48546 22-466)
# T1 sequence (looked up): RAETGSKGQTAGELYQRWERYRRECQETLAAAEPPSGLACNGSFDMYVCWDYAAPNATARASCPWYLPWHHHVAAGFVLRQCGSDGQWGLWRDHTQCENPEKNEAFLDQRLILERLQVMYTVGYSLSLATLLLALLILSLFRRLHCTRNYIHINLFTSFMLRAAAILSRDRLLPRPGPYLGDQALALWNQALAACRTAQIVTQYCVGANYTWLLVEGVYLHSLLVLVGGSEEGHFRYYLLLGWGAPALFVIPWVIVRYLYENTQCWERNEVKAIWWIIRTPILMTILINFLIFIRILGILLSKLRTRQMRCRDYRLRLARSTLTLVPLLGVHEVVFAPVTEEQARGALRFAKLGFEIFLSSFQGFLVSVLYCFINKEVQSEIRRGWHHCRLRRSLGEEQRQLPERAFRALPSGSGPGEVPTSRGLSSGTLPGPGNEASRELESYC
# T2: human glucose-dependent insulinotropic polypeptide (GIP) receptor (human) (UniProt P48546)
# T2 sequence (looked up): T1 sequence (looked up)
# T3: human GIP receptor (human, UniProt P48546 22-466)
# T3 sequence (looked up): T1 sequence (looked up)
# B1: Example 237 (peptide)
# peptide: YXEGTXTSDYXIXLDXKAQXEFIXXLIKGGPSSGAPPPS
# modifications: Y-Aib-EGT-αMeF(2F)-TSDY-Aib-I-αMeL-LD-Orn-K((2-[2-(2-Amino-ethoxy)-ethoxy]-acetyl)2-(γ-Glu)-(10-(4-carboxyphenoxy)decanoyl))AQ-Aib-EFI-(D-Glu)-αMeY-LIK((2-[2-(2-Amino-ethoxy)-ethoxy]-acetyl)2-(γ-Glu)-(10-(4-carboxyphenoxy)decanoyl))GGPSSGAPPPS-NH2
# B2: Example 247 (peptide)
# peptide: B1 peptide with Y10X, K17I, E21K
# modifications: Y-Aib-EGT-αMeF(2F)-TSD-4Pal-Aib-I-αMeL-LD-Orn-IAQ-Aib-K((2-[2-(2-Amino-ethoxy)-ethoxy]-acetyl)2-(γ-Glu)-(10-(4-carboxyphenoxy)decanoyl))FI-(D-Glu)-αMeY-LIK((2-[2-(2-Amino-ethoxy)-ethoxy]-acetyl)2-(γ-Glu)-(10-(4-carboxyphenoxy)decanoyl))GGPSSGAPPPS-NH2
# B3: Example 243 (peptide)
# peptide: B1 peptide with Y10X, E21K, K28E
# modifications: Y-Aib-EGT-αMeF(2F)-TSD-4Pal-Aib-I-αMeL-LD-Orn-K((2-[2-(2-Amino-ethoxy)-ethoxy]-acetyl)2-(γ-Glu)-(10-(4-carboxyphenoxy)decanoyl))AQ-Aib-K((2-[2-(2-Amino-ethoxy)-ethoxy]-acetyl)2-(γ-Glu)-(10-(4-carboxyphenoxy)decanoyl))FI-(D-Glu)-αMeY-LIEGGPSSGAPPPS-NH2
# B4: Example 240 (peptide)
# peptide: B1 peptide with K17I, E21K
# modifications: Y-Aib-EGT-αMeF(2F)-TSDY-Aib-I-αMeL-LD-Orn-IAQ-Aib-K((2-[2-(2-Amino-ethoxy)-ethoxy]-acetyl)2-(γ-Glu)-(10-(4-carboxyphenoxy)decanoyl))FI-(D-Glu)-αMeY-LIK((2-[2-(2-Amino-ethoxy)-ethoxy]-acetyl)2-(γ-Glu)-(10-(4-carboxyphenoxy)decanoyl))GGPSSGAPPPS-NH2
# B5: Example 238 (peptide)
# peptide: YXEGTXTSDYXIXLDXKAQXEFIXXLIEGGPSSGAPPPSK
# modifications: Y-Aib-EGT-αMeF(2F)-TSDY-Aib-I-αMeL-LD-Orn-K((2-[2-(2-Amino-ethoxy)-ethoxy]-acetyl)2-(γ-Glu)-(10-(4-carboxyphenoxy)decanoyl))AQ-Aib-EFI-(D-Glu)-αMeY-LIEGGPSSGAPPPSK((2-[2-(2-Amino-ethoxy)-ethoxy]-acetyl)2-(γ-Glu)-(10-(4-carboxyphenoxy)decanoyl))-NH2
# B6: Example 241 (peptide)
# peptide: B5 peptide with K17I, E21K
# modifications: Y-Aib-EGT-αMeF(2F)-TSDY-Aib-I-αMeL-LD-Orn-IAQ-Aib-K((2-[2-(2-Amino-ethoxy)-ethoxy]-acetyl)2-(γ-Glu)-(10-(4-carboxyphenoxy)decanoyl))FI-(D-Glu)-αMeY-LIEGGPSSGAPPPSK((2-[2-(2-Amino-ethoxy)-ethoxy]-acetyl)2-(γ-Glu)-(10-(4-carboxyphenoxy)decanoyl))-NH2
# B7: Example 245 (peptide)
# peptide: B5 peptide with Y10X
# modifications: Y-Aib-EGT-αMeF(2F)-TSD-4Pal-Aib-I-αMeL-LD-Orn-K((2-[2-(2-Amino-ethoxy)-ethoxy]-acetyl)2-(γ-Glu)-(10-(4-carboxyphenoxy)decanoyl))AQ-Aib-EFI-(D-Glu)-αMeY-LIEGGPSSGAPPPSK((2-[2-(2-Amino-ethoxy)-ethoxy]-acetyl)2-(γ-Glu)-(10-(4-carboxyphenoxy)decanoyl))-NH2
# B8: Example 242 (peptide)
# peptide: B5 peptide with Y10X, K17I, E21K
# modifications: Y-Aib-EGT-αMeF(2F)-TSD-4Pal-Aib-I-αMeL-LD-Orn-IAQ-Aib-K(2-[2-(2-Amino-ethoxy)-ethoxy]-acetyl)2-(γ-Glu)-(11-(4-carboxyphenoxy)undecanoyl)FI-(D-Glu)-αMeY-LIEGGPSSGAPPPSK((2-[2-(2-Amino-ethoxy)-ethoxy]-acetyl)2-(γ-Glu)-(11-(4-carboxyphenoxy)undecanoyl)-NH2)
# B9: Example 248 (peptide)
# peptide: B5 peptide with Y10X, K17I, E21K
# modifications: Y-Aib-EGT-αMeF(2F)-TSD-4Pal-Aib-I-αMeL-LD-Orn-IAQ-Aib-K((2-[2-(2-Amino-ethoxy)-ethoxy]-acetyl)2-(γ-Glu)-(10-(4-carboxyphenoxy)decanoyl))FI-(D-Glu)-αMeY-LIEGGPSSGAPPPSK((2-[2-(2-Amino-ethoxy)-ethoxy]-acetyl)2-(γ-Glu)-(10-(4-carboxyphenoxy)decanoyl))-NH2
# B10: Example 333 (peptide)
# peptide: Y[Aib]EGT[αMePhe(2-F)]TSD[Nle]SI[αMeL]LD[Orn]IAQ[Aib]K([AEEA-AEEA-γGlu-Decanoyl(10-(4-HOOC-PhO))])FI[dE][αMeY]LIK([AEEA-AEEA-γGlu-Decanoyl(10-(4-HOOC-PhO))])GGPSSGAPPPS-NH2
# modifications: N-terminus assumed
# SMILES: CCCC[C@H](NC(=O)[C@H](CC(=O)O)NC(=O)[C@H](CO)NC(=O)[C@@H](NC(=O)[C@](C)(Cc1ccccc1F)NC(=O)[C@@H](NC(=O)CNC(=O)[C@H](CCC(=O)O)NC(=O)C(C)(C)NC(=O)[C@@H](N)Cc1ccc(O)cc1)[C@@H](C)O)[C@@H](C)O)C(=O)N[C@@H](CO)C(=O)N[C@H](C(=O)N[C@@](C)(CC(C)C)C(=O)N[C@@H](CC(C)C)C(=O)N[C@@H](CC(=O)O)C(=O)N[C@@H](CCCN)C(=O)N[C@H](C(=O)N[C@@H](C)C(=O)N[C@@H](CCC(N)=O)C(=O)NC(C)(C)C(=O)N[C@@H](CCCCNC(=O)COCCOCCNC(=O)COCCOCCNC(=O)CC[C@H](NC(=O)CCCCCCCCCOc1ccc(C(=O)O)cc1)C(=O)O)C(=O)N[C@@H](Cc1ccccc1)C(=O)N[C@H](C(=O)N[C@H](CCC(=O)O)C(=O)N[C@@](C)(Cc1ccc(O)cc1)C(=O)N[C@@H](CC(C)C)C(=O)N[C@H](C(=O)N[C@@H](CCCCNC(=O)COCCOCCNC(=O)COCCOCCNC(=O)CC[C@H](NC(=O)CCCCCCCCCOc1ccc(C(=O)O)cc1)C(=O)O)C(=O)NCC(=O)NCC(=O)N1CCC[C@H]1C(=O)N[C@@H](CO)C(=O)N[C@@H](CO)C(=O)NCC(=O)N[C@@H](C)C(=O)N1CCC[C@H]1C(=O)N1CCC[C@H]1C(=O)N1CCC[C@H]1C(=O)N[C@@H](CO)C(N)=O)[C@@H](C)CC)[C@@H](C)CC)[C@@H](C)CC)[C@@H](C)CC
# Biological target: human GLP-1 receptor (human, UniProt P43220 24-463)
# Assay: cell-based or functional assay
Binder,cAMP EC50 (1.0% HSA) [nM],cAMP Emax (1.0% HSA) [%]
B1,38.1,
B2,77.7,109
B3,34.7,114
B4,150,107
B5,27.2,103
B6,103,105
B7,27,93.8
B8,214,102
B9,56.7,92.7

# Biological target: T1, human GIP receptor
# Assay: cell-based or functional assay
Binder,cAMP EC50 (1.0% HSA) [nM],cAMP Emax (1.0% HSA) [%]
B1,0.889,93.1
B2,4.24,90.2
B3,0.728,
B4,11.7,87.2
B5,1.31,
B6,8.02,84.9
B7,0.552,
B8,11,83.9
B9,4.1,91.8

# Biological target: human glucagon receptor (human, UniProt P47871 26-477)
# Assay: cell-based or functional assay
row,Binder,cAMP EC50 (1.0% HSA) [nM]
1,B1,> 9950
2,B2,> 9950
3,B3,> 9950
4,B4,> 9950
5,B5,> 9950
6,B6,> 9950
7,B7,> 9950
8,B8,> 9950
9,B9,> 9950

# Biological target: human glucagon-like peptide-1 (GLP-1) receptor (human) (UniProt P43220)
# Assay: cell-based or functional assay
Binder,cAMP EC50 [nM],cAMP Emax [%]
B1,0.633,102
B2,1,108
B3,0.86,93.2
B4,0.508,98.5
B5,1.03,107
B6,0.362,91
B7,1.88,88.9
B8,0.584,96.3
B9,0.537,89.1

# Biological target: T2, human glucose-dependent insulinotropic polypeptide (GIP) receptor (human)
# Assay: cell-based or functional assay
Binder,cAMP EC50 [nM],cAMP Emax [%]
B1,0.0186,102
B2,0.022,103
B3,0.0154,101
B4,0.0237,99.1
B5,0.0214,104
B6,0.0213,105
B7,0.0195,96.7
B8,0.0197,100
B9,0.0176,99.2

# Biological target: human glucagon receptor (human) (UniProt P47871)
# Assay: cell-based or functional assay
row,Binder,cAMP EC50 [nM]
1,B1,> 9950
2,B2,> 9950
3,B3,> 9950
4,B4,> 9950
5,B5,> 9950
6,B6,> 9950
7,B7,> 9950
8,B8,> 9950
9,B9,> 9950

# Biological target: T3, human GIP receptor
# Assay: cell-based or functional assay
row,Binder,cAMP EC50 [nM]
1,B10,0.0062

# Biological target: human GLP-1 receptor (human, UniProt P43220 24-463)
# Assay: cell-based or functional assay
# Remark: another data set of the same source
row,Binder,cAMP EC50 [nM]
1,B10,0.388

# Biological target: human glucagon receptor (human, UniProt P47871 26-477)
# Assay: cell-based or functional assay
# Remark: another data set of the same source
row,Binder,cAMP EC50 [nM]
1,B10,> 9950
